Experimental data: patent publication US20090298781A1, “COMPOUNDS FOR THE INHIBITION OF APOPTOSIS” (CONSEJO SUPERIOR DE, priority 2005, published 2009)
Non-standard residues stand in square brackets, D forms with d. Residues, ends and D or L forms follow the SMILES beside them. *: point of attachment. X1 = O=C1CC(C(=O)*)N(CCC(c2ccccc2)c2ccccc2)C(=O)CN1CCc1ccc(Cl)cc1Cl; N(2,4-Cl2-phenethyl)Gly = O=C(O)CNCCc1ccc(Cl)cc1Cl

Columns and labels:
[1] = system: Saos-2 cell line; experiment: MTT assay, toxicity (cell viability), Saos-2; format: cell-based
Experimental: (§1) The MTT assay measures cell proliferation as well as reduction in cell viability when metabolic events lead to apoptosis or necrosis. It can also be used to assess the rate of survival of a given cell line when it is incubated in the presence of xenobiotics. The reduction of tetrazolium salts is accepted as a reliable way to analyse cell proliferation. The yellow tetrazolium MTT (3-(4,5-dimethylthiazolyl-2)-2,5-diphenyltetrazolium bromide) is reduced by metabolically active cells and results in the intracellular formation of purple formazan that can be spectrophotometrically measured after solubilisation with DMSO.
(§2) The MTT assay was used in this invention to assess the toxicity of compounds at different concentrations. To analyse their potential impairment in cell viability, compounds were added to Saos-2 and U937 cell lines at different concentrations and incubated at different times. Results are expressed by percentage cell viability.

[2] = system: Caspase activity, U937 cell extracts; experiment: Caspase inhibition assay, U937 cell extracts; format: cell-based; details: 50 μM drug-eq.
Experimental: (§3) The time-dependent inhibition of caspase induced by the compounds described in this invention was analysed. […] Caspase activity was assayed using Saos-2 or U937 cell extracts and Ac-DEVD-afc (N-acetyl-Asp-Glu-Val-Asp-afc(7-amino-4-trifluoromethyl coumarin)) as substrate (20 μM). Caspase activity was continuously monitored by the liberation of fluorescent afc using a Cytofluor 4000 fluorimeter (excitation 400 nm; emission 508 nm) for 1 hour. The effect of the compounds on the caspase activity was expressed as the percentage of inhibition in the fluorescence signal of treated cells vs. the non-treated cells (control).

[3] = system: Caspase activity, Saos-2 cell extracts; experiment: Caspase inhibition assay, Saos-2 cell extracts; format: cell-based; details: 50 μM drug-eq.
Experimental: as §3

[4] = system: U937 cell line; experiment: MTT assay, toxicity (cell viability), U937; format: cell-based; details: U937, 24 h
Experimental: as §1, §2

[5] = system: Apaf-1 induced apoptosis, U937 cells; experiment: Inhibition of Apaf-1-induced apoptosis, cellular assay, U937; format: cell-based; details: U937 treated with apoptosome activator, 50 μM drug-eq
Experimental: (§4) The time-dependent inhibition of caspase induced by the compounds described in this invention was analysed. Cell lines were grown in the presence or absence of compounds (50 μM) at different times. Caspase activity was assayed using Saos-2 or U937 cell extracts and Ac-DEVD-afc (N-acetyl-Asp-Glu-Val-Asp-afc(7-amino-4-trifluoromethyl coumarin)) as substrate (20 μM). Caspase activity was continuously monitored by the liberation of fluorescent afc using a Cytofluor 4000 fluorimeter (excitation 400 nm; emission 508 nm) for 1 hour. The effect of the compounds on the caspase activity was expressed as the percentage of inhibition in the fluorescence signal of treated cells vs. the non-treated cells (control).
(§5) The activity of the compounds regards their specific target within the apoptotic machinery was assessed. Apaf-1 oligomerisation is a molecular event that leads to the activation of the apoptosome formation, which ends up in the induction of apoptosis. These experiments were performed in cell-free and in cellular assays.
(§6) For the cellular assays, Saos-2 and U937 cells were treated with an apoptosome activator (Nguyen and Wells, Proc. Natl. Acad. Sci. USA 2003, 100:7533-7538), which specifically induces Apaf-1 oligomerisation. […] The capacity of the compounds of inhibiting the Apaf-1 induced apoptosis was analysed by the inhibition of caspase activity (see above).

[6] = system: Apaf-1 induced apoptosis, Saos-2 cells; experiment: Inhibition of Apaf-1-induced apoptosis, cellular assay, Saos-2; format: cell-based; details: Saos-2 treated with apoptosome activator, 50 μM drug-eq
Experimental: as §4, §5, §6

[7] = target: T1, recombinant Apaf-1 (Homo sapiens, UniProt O14727); experiment: Cell-free caspase inhibition assay, Hek-293 FT cytoplasmatic fraction with recombinant Apaf-1; format: biochemical; details: Hek-293 FT fraction + recombinant Apaf-1 (FIG. 1), read-out: IC50, concentration needed to inhibit 50% of caspase activity
T1 construct: made in house
T1 sequence (O14727 1-1248): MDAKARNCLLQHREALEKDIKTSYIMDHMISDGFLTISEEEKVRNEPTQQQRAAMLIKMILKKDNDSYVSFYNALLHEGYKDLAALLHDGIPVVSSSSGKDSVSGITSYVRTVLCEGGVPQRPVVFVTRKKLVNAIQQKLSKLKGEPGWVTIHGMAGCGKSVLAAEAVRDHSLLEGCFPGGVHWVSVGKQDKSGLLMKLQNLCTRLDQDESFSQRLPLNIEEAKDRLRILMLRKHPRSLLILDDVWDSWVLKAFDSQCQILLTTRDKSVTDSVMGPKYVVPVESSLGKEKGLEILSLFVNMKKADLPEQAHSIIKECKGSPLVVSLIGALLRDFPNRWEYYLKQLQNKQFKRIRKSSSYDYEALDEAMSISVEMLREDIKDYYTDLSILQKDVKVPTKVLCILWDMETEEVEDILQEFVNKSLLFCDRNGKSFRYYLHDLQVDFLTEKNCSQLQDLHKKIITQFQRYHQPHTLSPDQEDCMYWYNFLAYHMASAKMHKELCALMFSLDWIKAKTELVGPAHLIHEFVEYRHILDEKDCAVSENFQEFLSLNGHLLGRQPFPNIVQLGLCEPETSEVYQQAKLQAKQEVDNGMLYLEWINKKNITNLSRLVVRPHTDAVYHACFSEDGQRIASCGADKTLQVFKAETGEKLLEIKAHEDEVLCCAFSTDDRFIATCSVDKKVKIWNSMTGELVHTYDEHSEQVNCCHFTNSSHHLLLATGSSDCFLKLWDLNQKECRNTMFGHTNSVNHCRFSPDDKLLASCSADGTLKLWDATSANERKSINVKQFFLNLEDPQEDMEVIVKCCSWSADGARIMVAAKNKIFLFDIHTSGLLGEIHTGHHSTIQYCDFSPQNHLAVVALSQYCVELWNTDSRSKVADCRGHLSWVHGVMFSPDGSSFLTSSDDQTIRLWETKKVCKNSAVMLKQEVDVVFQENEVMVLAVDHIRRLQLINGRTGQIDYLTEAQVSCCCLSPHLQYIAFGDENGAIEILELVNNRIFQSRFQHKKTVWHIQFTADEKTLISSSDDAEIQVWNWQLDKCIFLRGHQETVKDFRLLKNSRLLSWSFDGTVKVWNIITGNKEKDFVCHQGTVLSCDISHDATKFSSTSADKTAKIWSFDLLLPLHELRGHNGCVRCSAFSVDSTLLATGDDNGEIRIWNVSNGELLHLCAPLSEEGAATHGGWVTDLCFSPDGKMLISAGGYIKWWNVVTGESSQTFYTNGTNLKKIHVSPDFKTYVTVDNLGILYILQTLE
Experimental: as §5
For the cell-free assays, Hek-293 cytoplasmatic extracts were prepared as described before (Malet et al, 2005) and a partitioning of the complete cell extract was carried out. Concomitantly, recombinant Apaf-1 was purified according to Malet et al, 2005. The FT fraction (containing caspase-3 and -9 but lacking Apaf-1), was incubated with recombinant Apaf-1 in the presence of different concentrations of the compounds (see FIG. 1). The activity of the compounds was analysed by the inhibition of caspase activity (see above).
FIG. 1: Cell-free caspase inhibition assay using Hek-293 FT cytoplasmatic fraction incubated with recombinant Apaf-1 in the presence of different concentrations the compound IIa.1.

Poly-L-glutamic acid-[1-[2-(2,4-Dichlorophenyl)ethyl]-3-(3,3-diphenyl-propyl)-3,7-dioxo[1,4]diazepane-5-carboxylic acid {[({[(5-amino-1-carbamoylpentylcarbamoyl)methyl]-carbamoyl}methyl)carbamoyl]methyl}-[2-(2,4-dichlorophenyl)ethyl]amide] conjugate [III.1]
% Cell viability ([1]; Saos-2, 24 h, 20 μM drug-eq.): 96% | % Cell viability ([1]; Saos-2, 24 h, 50 μM drug-eq.): 99% | % Cell viability ([1]; Saos-2, 24 h, 100 μM drug-eq.): 93% | % Cell viability ([1]; Saos-2, 24 h, 250 μM drug-eq.): 75% | % Cell viability ([1]; Saos-2, 24 h, 500 μM drug-eq.): 35% | % Cell viability ([1]; Saos-2, 48 h, 20 μM drug-eq.): 95% | % Cell viability ([1]; Saos-2, 48 h, 50 μM drug-eq.): 87% | % Cell viability ([1]; Saos-2, 48 h, 100 μM drug-eq.): 95% | % Cell viability ([1]; Saos-2, 72 h, 20 μM drug-eq.): 86% | % Cell viability ([1]; Saos-2, 72 h, 50 μM drug-eq.): 63% | % Cell viability ([1]; Saos-2, 72 h, 100 μM drug-eq.): 68% | % Inh. caspase ([2]; U937, 24 h): 74% | % Inh. caspase ([2]; U937, 48 h): 85% | % Inh. caspase ([2]; U937, 72 h): 100% | % Inh. caspase ([3]; Saos-2, 24 h): 67% | % Inh. caspase ([3]; Saos-2, 48 h): 72% | % Inh. caspase ([3]; Saos-2, 72 h): 100% | % Cell viability ([4]; 20 μM drug-eq.): 98% | % Cell viability ([4]; 50 μM drug-eq.): 96% | % Cell viability ([4]; 100 μM drug-eq.): 84% | % Cell viability ([4]; 250 μM drug-eq.): 50% | % Cell viability ([4]; 500 μM drug-eq.): 27% | % Inh. caspase activity ([5]; 24 h): 27% | % Inh. caspase activity ([5]; 48 h): 95% | % Inh. caspase activity ([6]; 24 h): 22% | % Inh. caspase activity ([6]; 48 h): 54%

NCCCC[C@H](NC(=O)CNC(=O)CNC(=O)CN(CCc1ccc(Cl)cc1Cl)C(=O)C1CC(=O)N(CCc2ccc(Cl)cc2Cl)CC(=O)N1CCC(c1ccccc1)c1ccccc1)C(N)=O (stereo partly drawn) [IIa.1, 1-[2-(2,4-Dichlorophenyl)ethyl]-3-(3,3-diphenyl-propyl)-3,7-dioxo[1,4]diazepane-5-carboxylic acid {[({[(5-amino-1-carbamoylpentylcarbamoyl)methyl]-carbamoyl}methyl)carbamoyl]methyl}-[2-(2,4-dichlorophenyl)ethyl]amide] (X1-[N(2,4-Cl2-phenethyl)Gly]GGK-NH2)
IC50 [7]: ~30 µM
